Assay [1] concerns the target T1, V1aR (Homo sapiens, UniProt P37288). In words: Schild analysis (IP1 assay).
The target in assay [2] is T1, V1aR. The assay is described as follows: radioligand displacement.
Assay [3] deals with T2, OTR (Homo sapiens, UniProt P30559).
T2 chain: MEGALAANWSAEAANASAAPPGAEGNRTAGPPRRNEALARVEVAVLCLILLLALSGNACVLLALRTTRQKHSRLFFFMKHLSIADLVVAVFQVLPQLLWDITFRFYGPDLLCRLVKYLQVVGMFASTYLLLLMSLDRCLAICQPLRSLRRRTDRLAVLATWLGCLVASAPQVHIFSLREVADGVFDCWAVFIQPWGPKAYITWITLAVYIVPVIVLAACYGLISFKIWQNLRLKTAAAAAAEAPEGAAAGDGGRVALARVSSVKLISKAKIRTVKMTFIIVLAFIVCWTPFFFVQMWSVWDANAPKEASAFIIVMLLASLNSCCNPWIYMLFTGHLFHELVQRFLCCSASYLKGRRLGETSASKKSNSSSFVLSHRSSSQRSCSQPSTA
In words: radioligand displacement.

The target in assay [4] is T3, V1bR (Homo sapiens, UniProt P47901).
T3 chain: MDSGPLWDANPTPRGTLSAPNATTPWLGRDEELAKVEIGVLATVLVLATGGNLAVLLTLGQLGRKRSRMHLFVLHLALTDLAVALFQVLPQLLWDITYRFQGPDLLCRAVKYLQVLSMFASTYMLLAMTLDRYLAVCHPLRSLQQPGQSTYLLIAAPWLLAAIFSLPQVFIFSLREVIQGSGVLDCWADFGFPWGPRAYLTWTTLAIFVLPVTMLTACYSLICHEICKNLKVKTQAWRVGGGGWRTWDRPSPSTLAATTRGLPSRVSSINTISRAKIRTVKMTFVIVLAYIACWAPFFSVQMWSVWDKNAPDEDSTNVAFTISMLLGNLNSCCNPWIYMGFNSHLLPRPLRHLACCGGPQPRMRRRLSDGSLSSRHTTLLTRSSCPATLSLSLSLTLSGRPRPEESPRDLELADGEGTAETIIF
In words: radioligand displacement.

Bridge positions count the residues as written; N and C are the ends. Square brackets hold non-standard residues; d marks the D form. Ends that are not written are not given here.

T1 sequence (P37288 whole entry): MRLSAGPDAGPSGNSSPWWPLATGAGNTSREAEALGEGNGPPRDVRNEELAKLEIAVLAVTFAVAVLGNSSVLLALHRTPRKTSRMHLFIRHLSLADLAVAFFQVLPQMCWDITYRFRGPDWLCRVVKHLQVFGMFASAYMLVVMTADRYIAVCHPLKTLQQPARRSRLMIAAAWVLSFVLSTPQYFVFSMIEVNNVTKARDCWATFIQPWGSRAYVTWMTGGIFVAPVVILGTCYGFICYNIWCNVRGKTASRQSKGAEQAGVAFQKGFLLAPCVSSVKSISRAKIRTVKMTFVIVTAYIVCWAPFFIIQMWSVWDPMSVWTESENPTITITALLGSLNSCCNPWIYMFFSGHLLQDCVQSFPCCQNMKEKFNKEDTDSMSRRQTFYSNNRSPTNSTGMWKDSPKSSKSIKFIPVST

A word on the Ki: it is a measure of affinity in units of concentration, obtained from inhibition or displacement. The low end stands for a stronger hold on the target, the high end for a looser hold on the target. Regarding CLITNCP[dR]G-NH2 (disulfide 1-6 (inferred)) [[D-Arg8]-inotocin], the Ki was about 16 nM in assay [1], 1.3 nM in assay [2], over 4000 nM in assay [3] and over 100000 nM in assay [4].

The record behind these values is publication PMC5286520 (2017).
